B1: Phage-1644 (peptide-92 library clone, SEQ ID NO: 1940) (peptide)
peptide: SCAAGFDYGWPMCL
notes: Tested as clonal phage supernatant
B2: Phage-1643 (peptide-92 library clone, SEQ ID NO: 1939) (peptide)
peptide: SCSAGAGWAWPMCF
notes: as for B1
B3: Phage-1645 (peptide-92 library clone, SEQ ID NO: 1941) (peptide)
peptide: SCADGFNYVWPLCF
notes: as for B1
B4: Phage-1646 (peptide-92 library clone, SEQ ID NO: 1942) (peptide)
peptide: TCAAGANYSWPACL
notes: as for B1
B5: Phage-1642 (peptide-92 library clone, SEQ ID NO: 1938) (peptide)
peptide: SCSAVFSYRWPKCL
notes: as for B1
B6: Phage-1654 (peptide)
peptide: TCAAGATYNWPWCF
B7: Phage-1647 (peptide)
peptide: QCAAGATYPWPVCL
B8: Phage-1653 (peptide)
peptide: TCAAGAHYEWPQCF
B9: Phage-1657 (peptide)
peptide: SCAAGSTWAWPACL
B10: Phage-1659 (peptide)
peptide: SCTAGFRIHWPMCF
B11: Phage-1655 (peptide)
peptide: TCAAGATWTWPTCM
B12: Phage-1652 (peptide)
peptide: TCAAGANYAWPVCL
B13: Phage-1660 (peptide)
peptide: SCAAGAAYAWPWCL
B14: Phage-1648 (peptide)
peptide: TCSAGATYTWPVCF
B15: Phage-1656 (peptide)
peptide: PCAAGAQWSWPMCL
B16: Phage-1658 (peptide)
peptide: SCAAGFHYEWPQCF
B17: Phage-1650 (peptide)
peptide: TCSAGATYSWPLCF
B18: Phage-1651 (peptide)
peptide: TCAAGATYSWPSCF
B19: Phage-1649 (peptide)
peptide: TCSAGAHYEWPKCL
B20: Phage-1666 (peptide)
peptide: SCTAVFSYALSPCF
notes: tested as crude phage supernatant
B21: Phage-1665 (peptide)
peptide: WCSEVFSYPWPACL
notes: as for B20
B22: Phage-1663 (peptide)
peptide: SCAAVFSFNWPECF
notes: as for B20
B23: Phage-1664 (peptide)
peptide: TCSAGASYSWPYCM
notes: as for B20
B24: Phage-1672 (peptide)
peptide: SCAAGASYSWPLCF
notes: as for B20
B25: Phage-1661 (peptide)
peptide: MCTAGFSFNWPECL
notes: as for B20
B26: Phage-1673 (peptide)
peptide: VCAAGAAYPWPACL
notes: as for B20
B27: Phage-1674 (peptide)
peptide: TCSAGAHYPWPMCL
notes: as for B20
B28: Phage-1662 (peptide)
peptide: LCDQFFHYNWPACL
notes: as for B20
B29: Phage-1668 (peptide)
peptide: PCAAGAHYVWPVCF
notes: as for B20
B30: Phage-1670 (peptide)
peptide: SCAAGAHWSWPACL
notes: as for B20
B31: Phage-1667 (peptide)
peptide: LCAAVFAYTWPMCF
notes: as for B20
B32: Phage-1669 (peptide)
peptide: TCSAGATYKWPTCL
notes: as for B20
B33: Phage-1671 (peptide)
peptide: MCAAGAMYNWPLCL
notes: as for B20
B34: Phage-1699 (peptide)
peptide: TCAAGAAYTWPHCF
B35: Phage-1700 (peptide)
peptide: TCSAGAQWEWPACL
B36: Phage-1697 (peptide)
peptide: TCAAGAQLEWPWCF
B37: Phage-1695 (peptide)
peptide: TCAAGAVWQWPTCF
B38: Phage-1701 (peptide)
peptide: WCSAVFSYQWPVCL
B39: Phage-1702 (peptide)
peptide: SCSAGASYAWPMCI
B40: Phage-1690 (peptide)
peptide: TCSAGATYKWPMCF
B41: Phage-1694 (peptide)
peptide: TCAAGATYDWPSCL
B42: Phage-1691 (peptide)
peptide: TCSAGATYGWPACF
B43: Phage-1696 (peptide)
peptide: PCSAGATYAWPYCL
B44: Phage-1693 (peptide)
peptide: ECSAGAMWGWPACF
B45: Phage-1692 (peptide)
peptide: ICAAGAGWPWPWCL
B46: Phage-1698 (peptide)
peptide: GCAAGAEYNWPTCL

The binders below were run against Anti-CD28 Fab (SEQ ID NOs: 696, 697) (assay: phage binding ELISA; biotinylated anti-CD28 Fab on neutravidin plate, clonal phage, anti-M13 HRP detection).
Target sequence in this assay (VH, as listed by the source, chain 1 of 2): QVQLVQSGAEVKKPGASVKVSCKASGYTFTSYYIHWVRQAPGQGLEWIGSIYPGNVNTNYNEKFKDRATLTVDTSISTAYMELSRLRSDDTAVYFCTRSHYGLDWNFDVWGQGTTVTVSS
Target sequence in this assay (VL, as listed by the source, chain 2 of 2): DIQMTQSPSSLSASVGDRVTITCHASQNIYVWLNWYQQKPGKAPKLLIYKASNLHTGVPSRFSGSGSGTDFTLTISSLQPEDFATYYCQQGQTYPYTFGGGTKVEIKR
Protocol: (§1) Clonal phage were harvested as crude supematants and screened via standard ELISAs. […] Prior to the addition of clonal phage, wells were incubated with blocking buffer and CD28 antigen or blocking buffer alone. Without washing or aspirating, clonal phage supematants were then added to the wells and incubated for a short time. Wells were then washed followed by detection of bound phage using a horse radish conjugated anti-M13 antibody. Clonal phage of interest were then sent for sequence analysis.

Binder	Anti-CD28 Fab signal (phage binding ELISA)
B1	1.16
B2	1.16
B3	1.14
B4	1.14
B5	1.18

These binders were tested against T1, Anti-CD28 Fab (SEQ ID NOs: 696, 697) (assay: phage binding ELISA on captured Fab; wells pre-incubated with CD28 antigen as competitor).
T1 construct: In the phage ELISA the Fab was biotinylated and captured on neutravidin coated plates
T1 sequence (VH, as listed by the source, chain 1 of 2): as the sequence (VH, as listed by the source, chain 1 of 2) above
T1 sequence (VL, as listed by the source, chain 2 of 2): as the sequence (VL, as listed by the source, chain 2 of 2) above
Protocol: (§2) Clonal phage were harvested as crude supematants and screened via standard ELISAs. […] Prior to the addition of clonal phage, wells were incubated with blocking buffer and CD28 antigen or blocking buffer alone. Without washing or aspirating, clonal phage supematants were then added to the wells and incubated for a short time. Wells were then washed followed by detection of bound phage using a horse radish conjugated anti-M13 antibody.

Binder	Anti-CD28 Fab signal in the presence of CD28
B6	0.07
B7	0.09
B8	0.06
B9	0.07
B10	0.12
B11	0.06
B12	0.13
B13	0.07
B14	0.06
B15	0.09
B16	0.06
B17	0.09
B18	0.07
B19	0.07

What follows are binders tested against T2, Anti-CD28 Fab (SEQ ID NOs: 696, 697) (assay: phage binding ELISA; biotinylated Fab on neutravidin plate, anti-M13 HRP detection).
T2 construct: In the phage ELISA the Fab was biotinylated and captured on neutravidin coated plates
T2 sequence (VH, as listed by the source, chain 1 of 2): as the sequence (VH, as listed by the source, chain 1 of 2) above
T2 sequence (VL, as listed by the source, chain 2 of 2): as the sequence (VL, as listed by the source, chain 2 of 2) above
Protocol: as §2

Binder	Anti-CD28 Fab (SEQ ID NOs: 696, 697) signal
B20	0.99
B21	0.99
B22	1.01
B23	1
B24	0.95
B25	1.05
B26	0.93
B27	0.93
B28	1.04
B29	0.97
B30	0.97
B31	0.98
B32	0.97
B33	0.95

These binders were tested against T2, Anti-CD28 Fab (SEQ ID NOs: 696, 697) (assay: phage binding ELISA on captured Fab; CD28 antigen as competitor).
Protocol: as §2

Binder	Anti-CD28 Fab signal in the presence of CD28
B20	0.05
B21	0.06
B22	0.07
B23	0.07
B24	0.08
B25	0.07
B26	0.07
B27	0.06
B28	0.05
B29	0.06
B30	0.06
B31	0.07
B32	0.07
B33	0.09

Each binder was assayed against T3, Anti-CD28 Fab (SEQ ID NOs: 696, 697) (assay: phage binding ELISA; biotinylated anti-CD28 Fab on neutravidin plate, clonal phage supernatant, anti-M13 HRP detection;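 further: wells pretreated with blocking buffer, either plus or minus CD28 antigen, then given crude phage supernatant briefly without washing in between, then washed before anti-M13 HRP readout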).
T3 construct: In the phage ELISA the Fab was biotinylated and captured on neutravidin coated plates
T3 sequence (VH, as listed by the source, chain 1 of 2): as the sequence (VH, as listed by the source, chain 1 of 2) above
T3 sequence (VL, as listed by the source, chain 2 of 2): as the sequence (VL, as listed by the source, chain 2 of 2) above
Protocol: as §2

Binder	Phage binding ELISA, Anti-CD28 Fab signal
B34	0.69
B35	0.67
B36	0.7
B37	0.71
B38	0.61
B39	0.59
B40	0.77
B41	0.71
B42	0.76
B43	0.71
B44	0.73
B45	0.75
B46	0.69

The binders below were run against Anti-CD28 Fab (SEQ ID NOs: 696, 697) (assay: phage binding ELISA on captured anti-CD28 Fab, wells pre-incubated with CD28 antigen as competitor).
Target sequence in this assay (VH, as listed by the source, chain 1 of 2): as the sequence (VH, as listed by the source, chain 1 of 2) above
Target sequence in this assay (VL, as listed by the source, chain 2 of 2): as the sequence (VL, as listed by the source, chain 2 of 2) above
Protocol: as §1

Binder	Anti-CD28 Fab signal in the presence of CD28 (phage binding ELISA)
B1	0.06
B2	0.08
B3	0.08
B4	0.08
B5	0.06

These binders were tested against T1, Anti-CD28 Fab (SEQ ID NOs: 696, 697) (assay: phage binding ELISA; biotinylated Fab on neutravidin plate, clonal phage supernatant, anti-M13 HRP detection).
Protocol: as §1

Binder	Anti-CD28 Fab (SEQ ID NOs: 696, 697) signal
B6	1.07
B7	1.13
B8	1.08
B9	1.07
B10	1.06
B11	1.07
B12	1.09
B13	1.05
B14	1.13
B15	1.07
B16	1.06
B17	1.12
B18	1.1
B19	1.12

The binders below were run against T3, Anti-CD28 Fab (SEQ ID NOs: 696, 697) (assay: phage binding ELISA on plate-captured anti-CD28 Fab pre-incubated with CD28 antigen (competitor: CD28), anti-M13 HRP detection).
Protocol: as §2

Binder	Phage binding ELISA, Anti-CD28 Fab signal in the presence of CD28
B34	0.11
B35	0.08
B36	0.07
B37	0.06
B38	0.06
B39	0.06
B40	0.07
B41	0.08
B42	0.07
B43	0.09
B44	0.09
B45	0.1
B46	0.64

Reference: patent publication US20260242478A1 (published 2026)
